Reference: PMC4687524, “Molecular Properties and Functional Divergence of the Dehydroascorbate Reductase Gene Family in Lower and Higher Plants” (PLoS ONE, 2015)
One block for each molecule: values may come before it.

Assays:
Assay in all cases: A265 increase (ascorbate formation), nonlinear regression
[1] = test system: T1, ZmDHAR2; format: biochemical, Zea mays; details: 0.42 mM GSH; DHA 0.013-1.677 mM; 90 mM potassium phosphate pH 6.5, 25 C; read-out: Kinetic constants / K m ^DHA
T1 construct: gene DHAR2; clade I
Text: A265 increase (ascorbate formation), nonlinear regression on ZmDHAR2

[2] = substrate: O=C1O[C@H]([C@@H](O)CO)C(=O)C1=O; format: biochemical, Picea abies; details: 0.42 mM GSH, DHA 0.013-1.677 mM, 90 mM potassium phosphate pH 6.5, 25 C
Text: A265 increase (ascorbate formation), nonlinear regression on PabDHAR2

[3] = substrate: O=C1O[C@H]([C@@H](O)CO)C(=O)C1=O; format: biochemical, Selaginella moellendorffii; details: 0.42 mM GSH, DHA 0.013-1.677 mM, 90 mM potassium phosphate pH 6.5, 25 C
Text: A265 increase (ascorbate formation), nonlinear regression on SmDHAR1

Km [1]: 68 ± 9 µM
Molecule: O=C1O[C@H]([C@@H](O)CO)C(=O)C1=O [dehydroascorbate]

B1: PabDHAR2 (Picea abies) (protein)
chain: MSDLEIFSKAAPGTGSPSKERGDCPFSQRIFLELEELGLPYTATYIQEGADKPHWFMEKNPSGLMPVLRDRETWIQDSDKIAQYLDDHYAENTLRTQVEFKNVGSKIFPIFTKWLQCKDPNSACRDEFVDELVGFDRHLQNHGPYIAGKRPTDSDFALAPKLRHARVALAHFMDFQFPRELGALQNYMNRMESRESFEKTNYPNDMIIQGWRAKFNLPEKIANAS
notes: full length without predicted signal peptide, N-terminal 6xHis (pET-30a), E. coli BL21(DE3), Ni Sepharose; cytosolic, clade II, five exons
Km [2]: 0.118 ± 0.001 mM

B2: SmDHAR1 (Selaginella moellendorffii) (protein)
chain: MAVATTEAVEVLVKAANGDPSRLGDCPFSQRVLLTLEEKGIPYNSKFVDMENKPAWFLEANPEGKVPVVKDDGKWVADSDVITQLIETKFPSPSLVTPPEKSSVGSKIFSSFVKFLKSKDPSDGSEAALLEELKTLDEYLAKNGPFVNGSNISAVDLSLAPKLYHLKIALGHYKQWSVPQNLTNLNSYMEALFKRESFQKTMAPAEVVVKGWAKHLSA
notes: full length without predicted signal peptide, N-terminal 6xHis (pET-30a), E. coli BL21(DE3), Ni Sepharose; cytosolic, clade I
Km [3]: 0.115 ± 0.004 mM
